Measured values published in the supplement of paper PMC7877785.
± gives the uncertainty stated by the source.

Assay: self-splicing fitness, log relative to wild type (ln ratio); higher = more splicing; Tetrahymena group I intron in knt gene, E. coli kanamycin selection, DiMSum; sequences stand for … in CUCUCU…GGAGGGAAAAGUUAUCAGGCAUGCACCUGGUAGCUAGUCUUUAAACCAAUAGAUUGCAUCGGUUUAAAAGGCAAGACCGUCAAAUUGCGGGAAAGGGGUCAACAGCCGUUCAGUACCAAGUCUCAGGGGAAACUUUGAGAUGGCCUUGCAAAGGGUAUGGUAAUAAGCUGACGGACAUGGUCCUAACCACGCAGCCAAGUCCUAAGUCAACAGAUCUUCUGUUGAUAUGGAUGCAGUUCACAGACUAAAUGUCGGUCGGGGAAGAUGUAUUCUUCUCAUAAGAUAUAGUCGGACCUCUCCUUAAUGGGAGCUAGCGGAUGAAGUGAUGCAACACUGGAGCCGCUGGGAACUAAUUUGUAUGCGAAAGUAUAUUGAUUAGUUUUGGAGUACUCGUGGUCG
Method in brief: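 Six replicate transformations of E. coli BL21(DE3) with a pET-22b(+) library were grown overnight at 37°C or 30°C. The library randomised all eight P1ex-region intron nucleotides, the intron lying in the knt kanamycin-resistance gene, and plates were LB agar with or without 25 μg/mL kanamycin plus 100 μg/mL carbenicillin, 50 μM IPTG and 0.2% rhamnose. Pooled colonies were amplicon-sequenced on an Illumina HiSeq 2500, and fitness is the DiMSum error-weighted combination of wild-type-normalised replicate fold changes, kanamycin versus none.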

ACGUAGCAAUAUUACGUAAA
self-splicing fitness (ln) (30 °C): -3.11 ± 0.28
self-splicing fitness (ln) (37 °C): -0.404 ± 0.19

AAUAAGCAAUAUUACGAUGC
self-splicing fitness (ln) (30 °C): -2.4 ± 0.13
self-splicing fitness (ln) (37 °C): -1.45 ± 0.15

CUCGAGCAAUAUUACGCACU
self-splicing fitness (ln) (30 °C): -2.96 ± 0.3

CCGAAGCAAUAUUACGGCCA
self-splicing fitness (ln) (30 °C): -2.76 ± 0.17
self-splicing fitness (ln) (37 °C): -2.3 ± 0.18

CCCUAGCAAUAUUACGGCCU
self-splicing fitness (ln) (30 °C): -2.9 ± 0.21

GGGAAGCAAUAUUACGCGAG
self-splicing fitness (ln) (30 °C): -1.06 ± 0.33
self-splicing fitness (ln) (37 °C): -1.27 ± 0.47

AUCUAGCAAUAUUACGCUGU
self-splicing fitness (ln) (30 °C): -1.61 ± 0.14
self-splicing fitness (ln) (37 °C): -1.17 ± 0.18

GUAAAGCAAUAUUACGAUUC
self-splicing fitness (ln) (30 °C): 0.475 ± 0.08
self-splicing fitness (ln) (37 °C): 0.115 ± 0.091

AUACAGCAAUAUUACGGUCG
self-splicing fitness (ln) (30 °C): -1.08 ± 0.068
self-splicing fitness (ln) (37 °C): -0.545 ± 0.094

UGGAAGCAAUAUUACGACCC
self-splicing fitness (ln) (30 °C): -0.0757 ± 0.24
self-splicing fitness (ln) (37 °C): -0.147 ± 0.25

GUCAAGCAAUAUUACGGGAU
self-splicing fitness (ln) (30 °C): -5.19 ± 0.27
self-splicing fitness (ln) (37 °C): -2.96 ± 0.21

UCCCAGCAAUAUUACGUUAC
self-splicing fitness (ln) (30 °C): -3.88 ± 0.22
self-splicing fitness (ln) (37 °C): -2.72 ± 0.27

CCAGAGCAAUAUUACGAGGA
self-splicing fitness (ln) (30 °C): -2.96 ± 0.23
self-splicing fitness (ln) (37 °C): -2.46 ± 0.27

AGGAAGCAAUAUUACGGGAU
self-splicing fitness (ln) (30 °C): -2.75 ± 0.19
self-splicing fitness (ln) (37 °C): -2.06 ± 0.18

AUCGAGCAAUAUUACGCAUG
self-splicing fitness (ln) (30 °C): -3.62 ± 0.37
self-splicing fitness (ln) (37 °C): -2.62 ± 0.26

GGGAAGCAAUAUUACGCACA
self-splicing fitness (ln) (30 °C): -2.53 ± 0.26
self-splicing fitness (ln) (37 °C): -0.142 ± 0.41

CUUAAGCAAUAUUACGGCGU
self-splicing fitness (ln) (30 °C): -3.35 ± 0.2
self-splicing fitness (ln) (37 °C): -1.89 ± 0.17

UCACAGCAAUAUUACGUUCC
self-splicing fitness (ln) (30 °C): -3.38 ± 0.21
self-splicing fitness (ln) (37 °C): -1.47 ± 0.22

ACGGAGCAAUAUUACGCUUC
self-splicing fitness (ln) (30 °C): -2.92 ± 0.21
self-splicing fitness (ln) (37 °C): -2.81 ± 0.23

AUGCAGCAAUAUUACGACCG
self-splicing fitness (ln) (30 °C): -1.66 ± 0.29
self-splicing fitness (ln) (37 °C): -1.07 ± 0.3

UAGUAGCAAUAUUACGGUAA
self-splicing fitness (ln) (30 °C): -2.68 ± 0.3
self-splicing fitness (ln) (37 °C): -2.18 ± 0.29

CGGCAGCAAUAUUACGGCAC
self-splicing fitness (ln) (30 °C): -2.58 ± 0.28
self-splicing fitness (ln) (37 °C): -2.21 ± 0.22

UUCCAGCAAUAUUACGCUUU
self-splicing fitness (ln) (30 °C): -3.23 ± 0.23
self-splicing fitness (ln) (37 °C): -0.119 ± 0.12

UGUUAGCAAUAUUACGGGAC
self-splicing fitness (ln) (37 °C): -2.99 ± 0.48

GUGCAGCAAUAUUACGAACG
self-splicing fitness (ln) (30 °C): -2.4 ± 0.2
self-splicing fitness (ln) (37 °C): -0.213 ± 0.14

ACACAGCAAUAUUACGCGUA
self-splicing fitness (ln) (30 °C): -1.89 ± 0.078
self-splicing fitness (ln) (37 °C): -1.2 ± 0.074

CUAAAGCAAUAUUACGUGUU
self-splicing fitness (ln) (30 °C): -4.79 ± 0.19
self-splicing fitness (ln) (37 °C): -2.91 ± 0.16

GCGUAGCAAUAUUACGGUCC
self-splicing fitness (ln) (30 °C): -1.23 ± 0.38
self-splicing fitness (ln) (37 °C): -1.02 ± 0.3

ACCAAGCAAUAUUACGUGAC
self-splicing fitness (ln) (30 °C): -3.55 ± 0.13
self-splicing fitness (ln) (37 °C): -1.99 ± 0.11

GGGAAGCAAUAUUACGACGC
self-splicing fitness (ln) (30 °C): -0.0345 ± 0.14
self-splicing fitness (ln) (37 °C): -0.0751 ± 0.18

AUAAAGCAAUAUUACGACCA
self-splicing fitness (ln) (30 °C): -0.122 ± 0.09
self-splicing fitness (ln) (37 °C): 0.00323 ± 0.12

ACGAAGCAAUAUUACGGCUU
self-splicing fitness (ln) (30 °C): -3.97 ± 0.24
self-splicing fitness (ln) (37 °C): -2.76 ± 0.22

AGACAGCAAUAUUACGGAUC
self-splicing fitness (ln) (30 °C): -3.16 ± 0.2
self-splicing fitness (ln) (37 °C): -0.56 ± 0.17

CGCCAGCAAUAUUACGGAUG
self-splicing fitness (ln) (30 °C): -2.64 ± 0.1
self-splicing fitness (ln) (37 °C): -1.25 ± 0.087

GCUCAGCAAUAUUACGUGGC
self-splicing fitness (ln) (30 °C): -3.61 ± 0.19
self-splicing fitness (ln) (37 °C): -2.79 ± 0.3

CUGGAGCAAUAUUACGCGGG
self-splicing fitness (ln) (30 °C): -3.62 ± 0.33
self-splicing fitness (ln) (37 °C): -2.33 ± 0.31

UCUGAGCAAUAUUACGUGAA
self-splicing fitness (ln) (30 °C): -2.32 ± 0.17
self-splicing fitness (ln) (37 °C): -1.9 ± 0.27

UGUAAGCAAUAUUACGUACG
self-splicing fitness (ln) (30 °C): -0.346 ± 0.057
self-splicing fitness (ln) (37 °C): -0.333 ± 0.067

CGAAAGCAAUAUUACGCGAU
self-splicing fitness (ln) (30 °C): -2.86 ± 0.21
self-splicing fitness (ln) (37 °C): -2.15 ± 0.34

UUGGAGCAAUAUUACGGGAC
self-splicing fitness (ln) (30 °C): -4 ± 0.48
self-splicing fitness (ln) (37 °C): -0.322 ± 0.34

UCGAAGCAAUAUUACGGACG
self-splicing fitness (ln) (30 °C): -0.371 ± 0.13
self-splicing fitness (ln) (37 °C): 0.158 ± 0.12

UUCCAGCAAUAUUACGGGUA
self-splicing fitness (ln) (30 °C): -0.292 ± 0.08
self-splicing fitness (ln) (37 °C): 0.0398 ± 0.088

UUUGAGCAAUAUUACGAAGG
self-splicing fitness (ln) (30 °C): -3.13 ± 0.34
self-splicing fitness (ln) (37 °C): -1.66 ± 0.31

AUCGAGCAAUAUUACGCACU
self-splicing fitness (ln) (30 °C): -1.25 ± 0.12
self-splicing fitness (ln) (37 °C): -0.213 ± 0.14

AAGAAGCAAUAUUACGUGAG
self-splicing fitness (ln) (30 °C): -1.35 ± 0.046
self-splicing fitness (ln) (37 °C): -0.828 ± 0.075

CUCGAGCAAUAUUACGGUAC
self-splicing fitness (ln) (30 °C): -2.82 ± 0.22
self-splicing fitness (ln) (37 °C): -2.84 ± 0.4

GUUAAGCAAUAUUACGCUCU
self-splicing fitness (ln) (30 °C): -1.24 ± 0.1
self-splicing fitness (ln) (37 °C): -1.12 ± 0.11

CAAAAGCAAUAUUACGAAAA
self-splicing fitness (ln) (30 °C): -2.35 ± 0.18
self-splicing fitness (ln) (37 °C): -2.11 ± 0.2

UAGGAGCAAUAUUACGACGG
self-splicing fitness (ln) (30 °C): -2.88 ± 0.13
self-splicing fitness (ln) (37 °C): -0.471 ± 0.12

UACAAGCAAUAUUACGACCU
self-splicing fitness (ln) (30 °C): -0.732 ± 0.068
self-splicing fitness (ln) (37 °C): -0.688 ± 0.086

UGGAAGCAAUAUUACGGGCG
self-splicing fitness (ln) (30 °C): -0.122 ± 0.1
self-splicing fitness (ln) (37 °C): -0.0506 ± 0.11

UAAGAGCAAUAUUACGGGCA
self-splicing fitness (ln) (30 °C): -2.73 ± 0.26
self-splicing fitness (ln) (37 °C): -1.99 ± 0.24

GACCAGCAAUAUUACGCCGC
self-splicing fitness (ln) (30 °C): -3.75 ± 0.32

UCAAAGCAAUAUUACGGGGG
self-splicing fitness (ln) (30 °C): -2.55 ± 0.14
self-splicing fitness (ln) (37 °C): -1.49 ± 0.14

AUUCAGCAAUAUUACGGCAU
self-splicing fitness (ln) (30 °C): -0.321 ± 0.065
self-splicing fitness (ln) (37 °C): 1.01 ± 0.1

CGCUAGCAAUAUUACGAACA
self-splicing fitness (ln) (30 °C): -0.88 ± 0.11
self-splicing fitness (ln) (37 °C): -0.227 ± 0.14

AUUGAGCAAUAUUACGUUGC
self-splicing fitness (ln) (30 °C): -2.94 ± 0.33
self-splicing fitness (ln) (37 °C): -1.64 ± 0.18

UAACAGCAAUAUUACGGGCC
self-splicing fitness (ln) (30 °C): -3.47 ± 0.26
self-splicing fitness (ln) (37 °C): -2.98 ± 0.26

CAGCAGCAAUAUUACGGCAA
self-splicing fitness (ln) (30 °C): -1.35 ± 0.1
self-splicing fitness (ln) (37 °C): -1.45 ± 0.097

UCUAAGCAAUAUUACGAGUU
self-splicing fitness (ln) (30 °C): -2.94 ± 0.2
self-splicing fitness (ln) (37 °C): -3.27 ± 0.28

AACUAGCAAUAUUACGCACG
self-splicing fitness (ln) (30 °C): -0.871 ± 0.098
self-splicing fitness (ln) (37 °C): -0.361 ± 0.12

GUAUAGCAAUAUUACGCCGA
self-splicing fitness (ln) (30 °C): -2.97 ± 0.41
self-splicing fitness (ln) (37 °C): -0.946 ± 0.36

GCGGAGCAAUAUUACGGACA
self-splicing fitness (ln) (30 °C): -1.62 ± 0.21
self-splicing fitness (ln) (37 °C): -2.26 ± 0.31

GUGCAGCAAUAUUACGUAUC
self-splicing fitness (ln) (30 °C): -1.69 ± 0.13
self-splicing fitness (ln) (37 °C): -1.79 ± 0.13

UACAAGCAAUAUUACGACCG
self-splicing fitness (ln) (30 °C): -0.233 ± 0.096
self-splicing fitness (ln) (37 °C): 0.952 ± 0.13

CGUAAGCAAUAUUACGUCAU
self-splicing fitness (ln) (30 °C): -3.23 ± 0.17
self-splicing fitness (ln) (37 °C): -2.38 ± 0.17

UGAGAGCAAUAUUACGCAUC
self-splicing fitness (ln) (30 °C): -4.1 ± 0.46
self-splicing fitness (ln) (37 °C): -1.8 ± 0.19

GCGAAGCAAUAUUACGUUAC
self-splicing fitness (ln) (37 °C): -2.72 ± 0.43

ACAAAGCAAUAUUACGGAGG
self-splicing fitness (ln) (30 °C): -2.23 ± 0.078
self-splicing fitness (ln) (37 °C): -2.17 ± 0.11

CCUAAGCAAUAUUACGAUCG
self-splicing fitness (ln) (30 °C): -0.805 ± 0.15
self-splicing fitness (ln) (37 °C): -0.185 ± 0.17

UAGGAGCAAUAUUACGUGAA
self-splicing fitness (ln) (30 °C): -1.66 ± 0.34
self-splicing fitness (ln) (37 °C): -1.93 ± 0.34

AGUCAGCAAUAUUACGCGGG
self-splicing fitness (ln) (30 °C): -2.8 ± 0.16
self-splicing fitness (ln) (37 °C): -1.06 ± 0.2

AGUCAGCAAUAUUACGGCAA
self-splicing fitness (ln) (30 °C): -0.287 ± 0.083
self-splicing fitness (ln) (37 °C): -0.215 ± 0.081

AGCCAGCAAUAUUACGCGAU
self-splicing fitness (ln) (30 °C): -1.24 ± 0.14
self-splicing fitness (ln) (37 °C): -2.93 ± 0.32

GUCAAGCAAUAUUACGGGGA
self-splicing fitness (ln) (37 °C): -2.77 ± 0.44

CAUUAGCAAUAUUACGCAAU
self-splicing fitness (ln) (37 °C): -1.54 ± 0.43

UCUGAGCAAUAUUACGAACG
self-splicing fitness (ln) (30 °C): -2.04 ± 0.34
self-splicing fitness (ln) (37 °C): -1.65 ± 0.38
